Assay results published in publication PMC11329700 (2024).

B1: GST-Dyn1xA-PRR (dynamin 1xA proline-rich region, amino acids 746-864) [rat] / Amphiphysin 1 [rat (endogenous in rat brain synaptosomes)] (parent complex)
chain 1: NTTTVSTPMPPPVDDSWLQVQSVPAGRRSPTSSPTPQRRAPAVPPARPGSRGPAPGPPPAGSALGGAPPVPSRPGASPDPFGPPPQVPSRPNRAPPGVPSRSGQASPSRPESPRPPFDL
chain 2: MADIKTGIFAKNVQKRLNRAQEKVLQKLGKADETKDEQFEEYVQNFKRQEAEGTRLQRELRGYLAAIKGMQEASMKLTESLHEVYEPDWYGREDVKMVGEKCDVLWEDFHQKLVDGSLLTLDTYLGQFPDIKNRIAKRSRKLVDYDSARHHLEALQSSKRKDESRISKAEEEFQKAQKVFEEFNVDLQEELPSLWSRRVGFYVNTFKNVSSLEAKFHKEIAVLCHKLYEVMTKLGDQHADKAFSIQGAPSDSGPLRIAKTPSPPEEASPLPSPTASPNHTLAPASPAPVRPRSPSQTRKGPPVPPLPKVTPTKELQQENIINFFEDNFVPEINVTTPSQNEVLEVKKEETLLDLDFDPFKPDVTPAGSAAATHSPMSQTLPWDLWTTSTDLVQPASGGSFNDFTQPQDTSLFTMQTDQNMAETEQALPTEPQAEEPPTTAAAPTAGLDLGLEMEEPKEEAAIPPGTDAGETVGTEGSTGEEAEAEKAALPAGEGESPEGAKIDVESTELASSESPQAAELEAGAPQEKVIPSVVIEPASNHEGEEHQETTTGTETREATEDVAPQGPAGEKQELATEPTPLDSQAATPAPAGAVDASLSAGDAAQELPPGFLYKVETLHDFEAANSDELTLQRGDVVLVVPSDSEADQDAGWLVGVKESDWLQYRDLATYKGLFPENFTRHLE

Variants of: B1
Test: GST pull-down, quantified Western blot; parent: 60; read off a plot

Q: Which response does the source give for chain 1 NTTTVSTPMPPPVDDSWLQVQSVPAGRRSPTSSPTPQRRAPAVPPARPGSRGPAPGPPPAGSALGGAPPVPSRPGASPDPFGPPPQVPSRPNRAPPGVPSASGQASPSRPESPRPPFDL [chain 1 R101A] here?
A: The response was about 51 normalized intensity.
